US20030207838A1

Biological target: Fas (CD95) expressed on vascular smooth muscle cells (human) (UniProt P25445)
Test: cell-based or functional assay

Sequence of UniProt P25445 (P25445 26-335): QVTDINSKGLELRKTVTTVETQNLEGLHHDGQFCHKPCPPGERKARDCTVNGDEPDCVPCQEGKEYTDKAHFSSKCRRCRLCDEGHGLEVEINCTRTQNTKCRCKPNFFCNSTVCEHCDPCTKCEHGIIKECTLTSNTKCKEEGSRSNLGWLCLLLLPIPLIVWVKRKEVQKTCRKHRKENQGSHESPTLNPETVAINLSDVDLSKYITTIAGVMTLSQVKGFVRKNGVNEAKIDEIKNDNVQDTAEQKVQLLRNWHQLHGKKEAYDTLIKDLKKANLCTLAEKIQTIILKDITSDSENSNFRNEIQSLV

percent of apoptotic cells (hypodiploid DNA content) 16 h after treatment, A20-expressing SMC: 33%
percent of apoptotic cells (hypodiploid DNA content) 16 h after αFas treatment, non-infected (NI) SMC: 1.9%
percent of apoptotic cells (hypodiploid DNA content) 16 h after αFas treatment, rAd.β-gal-infected SMC: 2.34%
percent of apoptotic cells after αFas with Actinomycin D (150 nM), NI and rAd.β-gal infected SMC: 28 to 35%
Substance: anti-Fas antibody IgM clone CH-11 (05-201 Upstate)
